50 variants from article doi:10.1101/2021.08.20.457142 can be followed below.

B1: MKK6 D-site peptide / p38-alpha (MAPK14) L195A, full length (parent complex)
chain 1: SQSKGKKRNPGLKIPKEAFEQP
chain 2: MSQERPTFYRQELNKTVWEVPERYQNLSPVGSGAYGSVCAAFDTKTGHRVAVKKLSRPFQSIIHAKRTYRELRLLKHMKHENVIGLLDVFTPARSLEEFNDVYLVTHLMGADLNNIVKCQKLTDDHVQFLIYQILRGLKYIHSADIIHRDLKPSNLAVNEDCELKILDFGLARHTDDEMTGYVATRWYRAPEIMANWMHYNQTVDIWSVGCIMAELLTGRTLFPGTDHIDQLKLILRLVGTPGAELLKKISSESARNYIQSLAQMPKMNFANVFIGANPLAVDLLEKMLVLDSDKRITAAQALAHAYFAQYHDPDDEPVAEPYDQSFESRDFLIDEWKSLTYDEVISFVPPPLDQEEMES

In the assay the parent is B1.
With chain 1 SQSKGKKANPGLKIPKEAFEQP [chain 1 R8A], the screen value is -0.149 Z-score of the enrichment rate within one screen of 711 sequences.

For chain 1 SQSKGKKINPGLKIPKEAFEQP [chain 1 R8I], the screen value was 0.378 Z-score of the enrichment rate within one screen of 711 sequences.

For the variant chain 1 SQSKGKKDNPGLKIPKEAFEQP [chain 1 R8D], the screen value was -1 Z-score of the enrichment rate within one screen of 711 sequences.

With chain 1 SQSKGKKTNPGLKIPKEAFEQP [chain 1 R8T], the screen value is 0.227 Z-score of the enrichment rate within one screen of 711 sequences.

For the variant chain 1 SQSKGKKCNPGLKIPKEAFEQP [chain 1 R8C], the screen value was -0.13 Z-score of the enrichment rate within one screen of 711 sequences.

With chain 1 SQSKGAKRNPALKIPKEAFEQP [chain 1 K6A, chain 1 G11A], the screen value was 0.561 Z-score of the enrichment rate within one screen of 711 sequences.

Take chain 1 SQSKAKKRAPGLKIPKEAFEQP [chain 1 G5A, chain 1 N9A]: the screen value was 1.1 Z-score of the enrichment rate within one screen of 711 sequences.

Consider chain 1 SQSKGKKRNPDLKIPKEAFEQP [chain 1 G11D], for which the screen value was 0.0949 Z-score of the enrichment rate within one screen of 711 sequences.

For chain 1 SQSKGKKRNPQLKIPKEAFEQP [chain 1 G11Q], the screen value was 1.09 Z-score of the enrichment rate within one screen of 711 sequences.

For the variant chain 1 SQSKGKKRNPVLKIPKEAFEQP [chain 1 G11V], the screen value is 0.807 Z-score of the enrichment rate within one screen of 711 sequences.

On to chain 1 SQSKGKKRNPHLKIPKEAFEQP [chain 1 G11H], for which the screen value was 1.37 Z-score of the enrichment rate within one screen of 711 sequences.

In the case of chain 1 SQSKGKKRNPNLKIPKEAFEQP [chain 1 G11N], the screen value is 1.3 Z-score of the enrichment rate within one screen of 711 sequences.

For the variant chain 1 SQSKGKKRAPGLKAPKEAFEQP [chain 1 N9A, chain 1 I14A], the screen value was -0.573 Z-score of the enrichment rate within one screen of 711 sequences.

With chain 1 SQSKGKKRNPGAKAPKEAFEQP [chain 1 L12A, chain 1 I14A], the screen value is -1.27 Z-score of the enrichment rate within one screen of 711 sequences.

chain 1 SQSKGKERNPGLKIPKEAFEQP [chain 1 K7E]: the screen value is -0.535 Z-score of the enrichment rate within one screen of 711 sequences.

On to chain 1 SQSKGKQRNPGLKIPKEAFEQP [chain 1 K7Q], for which the screen value was 0.531 Z-score of the enrichment rate within one screen of 711 sequences.

With chain 1 SQSKGKWRNPGLKIPKEAFEQP [chain 1 K7W], the screen value is 1.32 Z-score of the enrichment rate within one screen of 711 sequences.

Turning to chain 1 SQSKGKARNPGLKIPKEAFEQP [chain 1 K7A], the screen value was 0.591 Z-score of the enrichment rate within one screen of 711 sequences.

Take chain 1 SQSKGKKRNPGLCIPKEAFEQP [chain 1 K13C]: the screen value was -0.0746 Z-score of the enrichment rate within one screen of 711 sequences.

In the case of chain 1 SQSKGKKRNPGLEIPKEAFEQP [chain 1 K13E], the screen value is -0.899 Z-score of the enrichment rate within one screen of 711 sequences.

As for chain 1 SQSKGKKRNPGLHIPKEAFEQP [chain 1 K13H], the screen value was -0.111 Z-score of the enrichment rate within one screen of 711 sequences.

In the case of chain 1 SQSAGKKANPGLKIPKEAFEQP [chain 1 K4A, chain 1 R8A], the screen value was -0.792 Z-score of the enrichment rate within one screen of 711 sequences.

Take chain 1 SQSKGKKRNPALKIAKEAFEQP [chain 1 G11A, chain 1 P15A]: the screen value was 1.79 Z-score of the enrichment rate within one screen of 711 sequences.

Consider chain 1 SQSKGKKRNPGLKFPKEAFEQP [chain 1 I14F], for which the screen value is -0.0574 Z-score of the enrichment rate within one screen of 711 sequences.

For chain 1 SQSKGKKRNPGLKAPKEAFEQP [chain 1 I14A], the screen value is -0.785 Z-score of the enrichment rate within one screen of 711 sequences.

Turning to chain 1 SQSKGKKRNPGLKDPKEAFEQP [chain 1 I14D], the screen value is -0.97 Z-score of the enrichment rate within one screen of 711 sequences.

For chain 1 SQSKGKKRNPGLKVPKEAFEQP [chain 1 I14V], the screen value was -0.578 Z-score of the enrichment rate within one screen of 711 sequences.

Regarding chain 1 SQSKGKKRNPGLKLPKEAFEQP [chain 1 I14L], the screen value was 3.12 Z-score of the enrichment rate within one screen of 711 sequences.

In the case of chain 1 SQSKGKKRNPGLKEPKEAFEQP [chain 1 I14E], the screen value was -0.921 Z-score of the enrichment rate within one screen of 711 sequences.

In the case of chain 1 SQSKGKKRNPGLKQPKEAFEQP [chain 1 I14Q], the screen value is -1.07 Z-score of the enrichment rate within one screen of 711 sequences.

Regarding chain 1 SQSKGKKRNPGLKHPKEAFEQP [chain 1 I14H], the screen value is -0.748 Z-score of the enrichment rate within one screen of 711 sequences.

Turning to chain 1 SQSAGKKRNPGLKAPKEAFEQP [chain 1 K4A, chain 1 I14A], the screen value is -1.18 Z-score of the enrichment rate within one screen of 711 sequences.

For chain 1 SQAKGKKRNAGLKIPKEAFEQP [chain 1 S3A, chain 1 P10A], the screen value was 0.521 Z-score of the enrichment rate within one screen of 711 sequences.

With chain 1 SQSKGKKRNAGLKIPAEAFEQP [chain 1 P10A, chain 1 K16A], the screen value is -0.276 Z-score of the enrichment rate within one screen of 711 sequences.

Take chain 1 SQSKGKKRNPGDKIPKEAFEQP [chain 1 L12D]: the screen value is -1.05 Z-score of the enrichment rate within one screen of 711 sequences.

As to chain 1 SQSKGKKRNPGEKIPKEAFEQP [chain 1 L12E], the screen value is -1.29 Z-score of the enrichment rate within one screen of 711 sequences.

In the case of chain 1 SQSKGKKRNPGIKIPKEAFEQP [chain 1 L12I], the screen value was -0.212 Z-score of the enrichment rate within one screen of 711 sequences.

As for chain 1 SQSKGKKANPGLKIAKEAFEQP [chain 1 R8A, chain 1 P15A], the screen value is 0.201 Z-score of the enrichment rate within one screen of 711 sequences.

In the case of chain 1 SQFKGKKRNPGLKIPKEAFEQP [chain 1 S3F], the screen value is 1.62 Z-score of the enrichment rate within one screen of 711 sequences.

Consider chain 1 SQLKGKKRNPGLKIPKEAFEQP [chain 1 S3L], for which the screen value is 1.66 Z-score of the enrichment rate within one screen of 711 sequences.

Regarding chain 1 SQWKGKKRNPGLKIPKEAFEQP [chain 1 S3W], the screen value was 2.4 Z-score of the enrichment rate within one screen of 711 sequences.

On to chain 1 SQVKGKKRNPGLKIPKEAFEQP [chain 1 S3V], for which the screen value is 1.42 Z-score of the enrichment rate within one screen of 711 sequences.

Take chain 1 SQIKGKKRNPGLKIPKEAFEQP [chain 1 S3I]: the screen value is 2 Z-score of the enrichment rate within one screen of 711 sequences.

In the case of chain 1 SQAKGKKRNPGLKIPAEAFEQP [chain 1 S3A, chain 1 K16A], the screen value was 0.893 Z-score of the enrichment rate within one screen of 711 sequences.

With chain 1 SQSKGAKANPGLKIPKEAFEQP [chain 1 K6A, chain 1 R8A], the screen value is -0.524 Z-score of the enrichment rate within one screen of 711 sequences.

chain 1 SQAKGKKRNPGLKAPKEAFEQP [chain 1 S3A, chain 1 I14A]: the screen value is -0.936 Z-score of the enrichment rate within one screen of 711 sequences.

In the case of chain 1 SQSKGKKRNPGLKIANEAFEQP [chain 1 P15A, chain 1 K16N], the screen value is 0.0482 Z-score of the enrichment rate within one screen of 711 sequences.

Turning to chain 1 SQSKGKKRNPGLKIAAEAFEQP [chain 1 P15A, chain 1 K16A], the screen value was 1.54 Z-score of the enrichment rate within one screen of 711 sequences.

For the variant chain 1 SQSKLKKRNPGLKIPKEAFEQP [chain 1 G5L], the screen value was 4 Z-score of the enrichment rate within one screen of 711 sequences.

Regarding chain 1 SQSKDKKRNPGLKIPKEAFEQP [chain 1 G5D], the screen value is 0.151 Z-score of the enrichment rate within one screen of 711 sequences.
